Test results from publication PMC7078472.

How the values were obtained:
Experiment in all cases: MYTH (membrane yeast two-hybrid) quantitative β-Gal activity assay
[1] = biological target: TbATPc prey for MYTH (T. brucei ATP synthase subunit c without MTS, NubG-HA; identical to TcATPc); conditions: yeast strain NMY51, n = 3, 6 colonies for each independent experiment, read off a plot
[2] = biological target: TbATPc prey for MYTH (T. brucei ATP synthase subunit c without MTS, NubG-HA; identical to TcATPc); conditions: yeast strain NMY51; n = 3; 6 colonies for each independent experiment; parent: est. 150; read off a plot
[3] = biological target: TbMCU bait for MYTH (without MTS, SUC signal sequence, Cub-LexA-VP16); conditions: yeast strain NMY51; n = 3; 6 colonies for each independent experiment; parent: est. 140; read off a plot
[4] = biological target: T. cruzi MCU (TcMCU) bait for MYTH (Cub-LexA-VP16); conditions: yeast strain NMY51; n = 3; 6 colonies for each independent experiment; parent: est. 180; read off a plot
[5] = biological target: TbMCU bait for MYTH (without MTS, SUC signal sequence, Cub-LexA-VP16); conditions: yeast strain NMY51; n = 3; 6 colonies for each independent experiment; parent: est. 140; read off a plot; remark: listed apart in the source
[6] = biological target: TbMCUd bait for MYTH (Cub-LexA-VP16); conditions: yeast strain NMY51; n = 3; 6 colonies for each independent experiment; parent: est. 180; read off a plot
[7] = biological target: TbMCUc bait for MYTH (Cub-LexA-VP16); conditions: yeast strain NMY51; n = 3; 6 colonies for each independent experiment; parent: est. 140; read off a plot

“T. cruzi MCU (TcMCU) bait for MYTH (Cub-LexA-VP16) Q208A; I211P; I212P; F217A” showed a response ([1]; parent: est. 180) of 34 units.

Substance “TbMCU bait for MYTH (without MTS, SUC signal sequence, Cub-LexA-VP16) Q213A; V216P; I217P; F222A” has a response [2] of 27 units and a response ([1]; parent: est. 140) of 28 units.

Work on “TbMCU bait for MYTH (without MTS, SUC signal sequence, Cub-LexA-VP16) Y235A; F236A; T241E; Y248A” yielded a response [2] of 120 units.

For “TbATPc prey for MYTH (T. brucei ATP synthase subunit c without MTS, NubG-HA; identical to TcATPc) G64L; G66L; G68L; G70L”, the response [3] was 45 units, the response [4] was 58 units and the response [5] was 44 units. For the same substance, the response [6] was 58 units and the response [7] was 43 units.

Substance “TbATPc prey for MYTH (T. brucei ATP synthase subunit c without MTS, NubG-HA; identical to TcATPc) G64A; G66A; G68A; G70A” has a response [3] of 69 units.

Substance TbMCUd bait for MYTH (Cub-LexA-VP16) has a response ([1]; parent: est. 180) of 27 units.

TbMCUc bait for MYTH (Cub-LexA-VP16) gave a response ([1]; parent: est. 140) of 29 units.

“TbATPc prey for MYTH (T. brucei ATP synthase subunit c without MTS, NubG-HA; identical to TcATPc) F98L; F107L; F113L” showed a response [3] of 130 units.

In the case of “TbMCU bait for MYTH (without MTS, SUC signal sequence, Cub-LexA-VP16) V216P; I217P”, the response [2] is reported as 34 units.

With “TbMCUd bait for MYTH (Cub-LexA-VP16) R123A; V126P; L127P; Y132A” the response ([1]; parent: est. 180) was 34 units.

With “T. cruzi MCU (TcMCU) bait for MYTH (Cub-LexA-VP16)” the response ([1]; parent: est. 180) was 32 units.

“TbATPc prey for MYTH (T. brucei ATP synthase subunit c without MTS, NubG-HA; identical to TcATPc) F98L; E102A; F107L; F113L” gave a response [3] of 88 units.

Work on “TbMCUc bait for MYTH (Cub-LexA-VP16) Q161A; V164P; L165P; F170A” yielded a response ([1]; parent: est. 140) of 30 units.

“TbMCU bait for MYTH (without MTS, SUC signal sequence, Cub-LexA-VP16)” showed a response ([1]; parent: est. 140) of 26 units.
